The source of these data is PMC8550936.

Assay [1] deals with Venezuelan equine encephalitis virus (VEEV) virus-like particles (Venezuelan equine encephalitis virus, strain TC-83) (UniProt P09592). The assay can be described thus: cryo-EM structure.
Assay [2] has the same target. The assay can be described thus: SPR; Biacore T200; […]; 30 µl/min, 25 °C, HBS-P plus 1 mM CaCl2; global 1:1 fit; […]. On the technique in general: In SPR one partner is held on a chip, and binding of the other changes the refractive index at the surface.

Chain of LDLRAD3(D1), cleaved monomeric ectodomain of mouse low-density lipoprotein receptor class A domain-c (A2AR95 18-70): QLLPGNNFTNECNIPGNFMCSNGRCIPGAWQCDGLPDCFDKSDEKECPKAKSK
Chain of LDLRAD3(D1+D2), cleaved monomeric ectodomain of mouse LDLRAD3, domains 1 and 2 (A2AR95 18-112): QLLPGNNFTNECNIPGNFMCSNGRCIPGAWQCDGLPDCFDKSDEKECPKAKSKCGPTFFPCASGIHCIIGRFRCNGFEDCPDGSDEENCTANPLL

Substance “LDLRAD3(D1), cleaved monomeric ectodomain of mouse low-density lipoprotein receptor class A domain-c (from UniProt A2AR95 18-70) (domain or fragment)” returned a stoichiometry N (molecules of LDLRAD3(D1) per VLP) in assay [1] of 240.

For orientation: Kd means the constant that tells how readily two partners part at equilibrium. As for “LDLRAD3(D1+D2), cleaved monomeric ectodomain of mouse LDLRAD3, domains 1 and 2 (from UniProt A2AR95 18-112) (domain or fragment)”, the Kd in assay [2] was determined as 50 nM.
